The values that follow come from article PMC11868117.

What all share (test): ELONA (direct, immobilized protein)
Series [1] concerns the target SARS-CoV-2 Alpha VOC spike (S) protein (SARS-CoV-2 (Alpha variant)) (UniProt P0DTC2).
Series [2] addresses SARS-CoV-2 Omicron VOC spike (S) protein (SARS-CoV-2 (Omicron variant)) (UniProt P0DTC2).
The target in series [3] is SARS-CoV-2 Delta VOC spike (S) protein (SARS-CoV-2 (Delta variant)) (UniProt P0DTC2).

For the sequence “AGTTAGCCGTCATTCAGACGATTTGTCCGTGTTACGATTGGGGAACGTGGATGACATTCTGGACACTCGCCATGCTCGAT [Alpha Apt (Bio)]”, the Kd in series [1] amounted to 194 nM. In turn, “CTGGCCTCACTGGATACTCTAAGACTATTGGTCAAGTTTGCCTTGTCAAGGCTATTGGTCAAGGCAAGGCTGGCCAACCCATGGGTGGAGTTTAGCCAG [Omicron Apt (Bio)]” had a Kd in series [2] of 32 nM.

In turn, “ATCGAGCATGGCGAGTGTCCTATCCCCCATCAACTCAACCCAACCAGTACGACTCCTCCTCGTCTGAATGACGGCTAACT [Delta Apt (Bio)]” returned a Kd in series [3] of 112 nM.
